The record followed here is US20170152299A1 (GUANGZHOU SHENGLU BIOTECH, published 2017).

T1: FGF7 (UniProt P21781 32-194)
T1 construct: Bought reagent; also called KGF
T1 sequence (looked up): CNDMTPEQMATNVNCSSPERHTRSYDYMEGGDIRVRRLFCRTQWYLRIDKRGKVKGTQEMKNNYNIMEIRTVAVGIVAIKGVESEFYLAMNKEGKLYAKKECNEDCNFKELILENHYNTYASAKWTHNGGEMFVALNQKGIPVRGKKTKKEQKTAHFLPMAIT

B1: truncated protein of the wild-type FGFR2b extracellular fragment (SEQ ID NO: 8) (receptor)
chain: KRAPYWTNTEKMEKRLHAVPAANTVKFRCPAGGNPMPTMRWLKNGKEFKQEHRIGGYKVRNQHWSLIMESVVPSDKGNYTCVVENEYGSINHTYHLDVVERSPHRPILQAGLPANASTVVGGDVEFVCKVYSDAQPHIQWIKHVEKNGSKYGPDGLPYLKVLKHSGINSSNAEVLALFNVTEADAGEYICKVSNYIGQANQSAWLTVLPKQQAPGR
notes: also called truncated FGFR2b extracellular fragment, wild type
B2: truncated protein of S252W mutant-type FGFR2b extracellular fragment (SEQ ID NO: 10) (receptor)
chain: KRAPYWTNTEKMEKRLHAVPAANTVKFRCPAGGNPMPTMRWLKNGKEFKQEHRIGGYKVRNQHWSLIMESVVPSDKGNYTCVVENEYGSINHTYHLDVVERWPHRPILQAGLPANASTVVGGDVEFVCKVYSDAQPHIQWIKHVEKNGSKYGPDGLPYLKVLKHSGINSSNAEVLALFNVTEADAGEYICKVSNYIGQANQSAWLTVLPKQQAPGR
notes: also called truncated FGFR2b extracellular fragment, S252W mutant type
B3: truncated protein of P253R mutant-type FGFR2b extracellular fragment (SEQ ID NO: 12) (receptor)
chain: KRAPYWTNTEKMEKRLHAVPAANTVKFRCPAGGNPMPTMRWLKNGKEFKQEHRIGGYKVRNQHWSLIMESVVPSDKGNYTCVVENEYGSINHTYHLDVVERSRHRPILQAGLPANASTVVGGDVEFVCKVYSDAQPHIQWIKHVEKNGSKYGPDGLPYLKVLKHSGINSSNAEVLALFNVTEADAGEYICKVSNYIGQANQSAWLTVLPKQQAPGR
notes: also called truncated FGFR2b extracellular fragment, P253R mutant type

This assay concerns the target T1, FGF7. As to the kind of experiment: isothermal titration calorimetry; FGF7 titrated into the truncated FGFR2b extracellular fragment in the sample cell (Example 8). The procedure: The three types of the FGFR2b extracellular fragments and FGF7 (purchased from Millipore) were dialysed respectively with iTC buffer (0.15 mol/L NaCl and 5% glycerol in 20 mmol/L Na₂HPO₄-citrate buffer, pH 7.2). The proteins after the dialysis was centrifuged at 4° C. and 18000 rpm for 30 min before the iTC experiment.
400 ul 35 μmol/L of each of the three types of the FGFR2b extracellular fragments was added to the sample pool, respectively, and titrated with 200 μl 93 μmol/LFGF7 at 2 μl per time at a 2.5 min interval for a total of 20 drops.
On the technique in general: ITC needs no label: the signal is the heat of the interaction.
In the case of B1, the Ka worked out at 8.74e+06 M⁻¹.

With B2, the Ka came out at 1.26e+08 M⁻¹.

The molecule B3 showed a Ka of 3.94e+07 M⁻¹.
